Holding throughout (assay): yeast two-hybrid
For assay [1], the target named is T1, Pyruvate orthophosphate dikinase-like PN20674, prey clone aa 64-263 (Oryza sativa, UniProt Q6AVA8 64-263).
T1 construct: prey; AD fusion; input trait library
T1 sequence: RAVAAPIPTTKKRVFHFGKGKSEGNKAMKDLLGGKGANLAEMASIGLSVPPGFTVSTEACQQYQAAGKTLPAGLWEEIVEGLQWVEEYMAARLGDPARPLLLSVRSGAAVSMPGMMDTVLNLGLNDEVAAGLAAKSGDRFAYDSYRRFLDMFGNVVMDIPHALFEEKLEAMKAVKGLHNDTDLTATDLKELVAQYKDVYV

For assay [2], the target named is T2, Pyruvate orthophosphate dikinase-like PN20674, prey clone aa 71-298 (Oryza sativa, UniProt Q6AVA8 71-298).
T2 construct: prey; AD fusion; input trait library
T2 sequence: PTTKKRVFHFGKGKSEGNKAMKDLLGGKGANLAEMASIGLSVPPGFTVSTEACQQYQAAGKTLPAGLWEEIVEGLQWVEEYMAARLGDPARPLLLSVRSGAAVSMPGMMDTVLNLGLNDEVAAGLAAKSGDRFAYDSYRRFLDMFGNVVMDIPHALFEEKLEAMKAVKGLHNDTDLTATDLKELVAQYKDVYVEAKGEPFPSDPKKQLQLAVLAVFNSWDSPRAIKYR

Assay [3] addresses T3, O. sativa Histone Deacetylase HD1, prey clone aa 90-221 (Oryza sativa, UniProt Q7Y0Y8 90-221).
T3 construct: prey; AD fusion; output trait library; also called OsAAK01712; PN24059

The target in assay [4] is T4, Novel Protein 23053, Fragment, Similar to Arabidopsis Putative Na+-Dependent Inorganic Phosphate … (Oryza sativa, UniProt Q8W0H5 141-320).
T4 construct: prey; AD fusion; input trait library; two clones; also called OsPN23053
T4 sequence: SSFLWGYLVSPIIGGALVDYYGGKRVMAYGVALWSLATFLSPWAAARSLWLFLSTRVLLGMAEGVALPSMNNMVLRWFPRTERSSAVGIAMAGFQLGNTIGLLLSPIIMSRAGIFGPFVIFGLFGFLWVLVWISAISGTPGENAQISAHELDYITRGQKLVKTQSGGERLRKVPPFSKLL

For assay [5], the target named is T5, Beta-Expansin EXPB2, prey clone aa 80-218 (Oryza sativa, UniProt O24230 80-218).
T5 construct: prey; AD fusion; input trait library; two clones; also called OsEXPB2; PN19902
T5 sequence: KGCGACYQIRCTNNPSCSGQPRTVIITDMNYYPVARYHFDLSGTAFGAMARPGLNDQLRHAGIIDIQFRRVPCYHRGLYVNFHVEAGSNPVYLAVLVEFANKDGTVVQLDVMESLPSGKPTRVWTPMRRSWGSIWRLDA

Assay [6] deals with T6, Auxin induced protein-like PN24061, prey clone aa 34-236 (Oryza sativa, UniProt A2XLV9 34-236).
T6 construct: prey; AD fusion; output trait library
T6 sequence: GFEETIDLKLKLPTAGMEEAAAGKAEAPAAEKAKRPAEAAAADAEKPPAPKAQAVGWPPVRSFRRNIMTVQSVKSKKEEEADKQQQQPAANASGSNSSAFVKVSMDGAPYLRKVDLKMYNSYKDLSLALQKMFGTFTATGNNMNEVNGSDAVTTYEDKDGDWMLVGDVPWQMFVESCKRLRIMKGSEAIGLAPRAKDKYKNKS
As to the method: (§1) Yeast carrying the target gene construct was combined with yeast carrying the activation domain library. The two yeast strains mated to form diploid yeast and were plated on media that selected for expression of one or more Ga14p-responsive reporter genes. Thus, both hybrid proteins (i.e., the target “bait” protein and the activation domain “prey” protein) were expressed in a yeast reporter strain where an interaction between the test proteins results in transcription of the reporter genes […]. Colonies that arose after incubation were selected for further characterization. The activation domain plasmid was isolated from each colony obtained in the two-hybrid search. The sequence of the insert in this construct was obtained by sequence analysis (e.g., Sanger's dideoxy nucleotide chain termination method; see Ausubel et al., 1988, including updates up to 2002). Thus, the identity of positives obtained from these searches was determined by sequence analysis against proprietary and public (e.g., GENBANK®) nucleic acid and protein databases.
The rice SGT1 protein shares 74 and 75% amino acid sequence similarity with two Arabidopsis thaliana SGT1 homologs and 45% amino acid sequence similarity with Saccharomyces cerevisiae SGT1. In yeast, SGT1 is required for cell-cycle progression at the G1/S-phase and G2/M-phase transitions. In A. thaliana, SGT1b interacts with Rar1 and mediates disease resistance. Thus, in plants, SGT1 likely controls processes that are fundamental to disease resistance and development. The rice OsSGT1 protein was chosen as a bait for these interaction studies based on its potential relevance to disease resistance and development.

Assay [7] concerns the target T7, O. sativa Cellulose Synthase Catalytic Subunit, RSW1-Like, prey clone aa 411-489 (Oryza sativa, UniProt A2Y0X2 411-489).
T7 construct: prey; AD fusion; input trait library; also called OsCS; PN19707
T7 sequence: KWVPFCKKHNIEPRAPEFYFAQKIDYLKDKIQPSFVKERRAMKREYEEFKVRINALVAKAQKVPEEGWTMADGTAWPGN
As to the method:
as §1
(§2) This example provides newly characterized rice proteins interacting with a rice chitinase, class III (OsCHIB1), and with rice cellulose synthase catalytic subunit, RSW1-like (OsCS). An automated, high-throughput yeast two-hybrid assay technology (provided by Myriad Genetics Inc., Salt Lake City, Utah) was used to search for protein interactions with the chitinase and cellulose synthase bait proteins.

The target in assay [8] is T8, O. sativa Catalase A Isozyme, prey clone aa 332-433 (Oryza sativa, UniProt P0C549 332-433).
T8 construct: prey; AD fusion; input trait library; also called OsCATA; PN20899
T8 sequence: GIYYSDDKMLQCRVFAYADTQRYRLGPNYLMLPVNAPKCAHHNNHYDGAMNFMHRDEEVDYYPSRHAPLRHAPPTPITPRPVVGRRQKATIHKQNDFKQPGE
As to the method:
as §1, §2

Assay [9] concerns the target T9, Novel Protein PN22154, Similar to A. thaliana Glutamyl Aminopeptidase, prey clone aa 390-562 (Oryza sativa, UniProt Q6Z6L4 390-562).
T9 construct: prey; AD fusion; input trait library; also called OsPN22154
T9 sequence: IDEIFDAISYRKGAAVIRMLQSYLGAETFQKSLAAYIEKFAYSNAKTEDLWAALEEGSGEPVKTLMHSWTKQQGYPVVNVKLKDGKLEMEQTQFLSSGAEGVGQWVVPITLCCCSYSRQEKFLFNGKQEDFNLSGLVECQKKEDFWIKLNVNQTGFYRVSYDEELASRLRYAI
As to the method: as §1, §2

The target of assay [10] is T10, Hypothetical Protein 006819-2510, Similar to Hemerocallis Senescence-Related Protein 5, bait fragment aa 1-273 (Oryza sativa).
T10 construct: bait; also called Os006819-2510; PN20462
T10 chain: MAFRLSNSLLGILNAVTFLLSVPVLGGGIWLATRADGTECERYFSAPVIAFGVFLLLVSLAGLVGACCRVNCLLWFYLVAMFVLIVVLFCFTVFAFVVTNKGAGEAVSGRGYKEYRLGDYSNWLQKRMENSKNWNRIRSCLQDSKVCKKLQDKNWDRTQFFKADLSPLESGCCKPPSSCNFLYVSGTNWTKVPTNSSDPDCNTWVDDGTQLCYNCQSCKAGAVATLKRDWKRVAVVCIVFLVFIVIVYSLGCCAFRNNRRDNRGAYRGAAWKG

In assay [11] the target is T11, O. sativa Chloroplast Ribulose Bisphosphate Carboxylase, Large Chain, prey clone aa 287-462 (Oryza sativa, UniProt P0C510 287-462).
T11 construct: prey; AD fusion; input trait library; also called OsRBCL; PN23426
T11 sequence (P0C510 287-462): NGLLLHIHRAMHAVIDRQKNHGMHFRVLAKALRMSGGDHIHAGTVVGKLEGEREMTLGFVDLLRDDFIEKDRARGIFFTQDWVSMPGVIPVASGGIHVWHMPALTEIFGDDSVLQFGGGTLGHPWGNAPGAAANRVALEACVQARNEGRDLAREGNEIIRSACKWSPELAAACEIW

Assay [12] addresses T12, Elicitor responsive protein, bait fragment aa 23-120 (Oryza sativa, UniProt Q0JBH9 23-120).
T12 construct: bait; also called OsERP; PN20696
T12 sequence: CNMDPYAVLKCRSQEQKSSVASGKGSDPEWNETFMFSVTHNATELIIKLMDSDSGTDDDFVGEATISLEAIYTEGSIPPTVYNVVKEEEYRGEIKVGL

The target of assay [13] is T13, O. sativa Putative 14-3-3 Protein, prey clone aa 53-259 (Oryza sativa, UniProt Q06967 53-259).
T13 construct: prey; AD fusion; input trait library; four clones; also called Os008938-3209; PN20215
T13 sequence: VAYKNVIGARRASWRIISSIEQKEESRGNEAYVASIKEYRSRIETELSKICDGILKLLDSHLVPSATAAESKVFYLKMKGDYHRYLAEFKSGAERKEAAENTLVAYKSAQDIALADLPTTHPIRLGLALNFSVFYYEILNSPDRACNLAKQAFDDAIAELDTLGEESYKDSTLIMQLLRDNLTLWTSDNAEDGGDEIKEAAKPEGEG

Assay [14] addresses T14, Beta-Expansin EXPB2, prey clone aa 80-207 (Oryza sativa, UniProt O24230 80-207).
T14 construct: prey; AD fusion; input trait library; also called OsEXPB2; PN19902
T14 sequence: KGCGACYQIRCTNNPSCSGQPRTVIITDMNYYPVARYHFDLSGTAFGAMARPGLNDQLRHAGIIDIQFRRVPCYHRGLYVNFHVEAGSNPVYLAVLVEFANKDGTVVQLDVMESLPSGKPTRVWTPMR

Results on ten molecules are retold here after US20060235215A1 (published 2006).

T3 sequence (Q7Y0Y8 90-221): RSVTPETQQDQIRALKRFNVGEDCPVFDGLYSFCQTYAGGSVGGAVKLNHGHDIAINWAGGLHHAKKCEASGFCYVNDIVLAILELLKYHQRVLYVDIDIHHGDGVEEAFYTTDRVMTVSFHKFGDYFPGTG

B1: Elicitor responsive protein, bait fragment aa 50-145 (other)
chain: PEWNETFMFSVTHNATELIIKLMDSDSGTDDDFVGEATISLEAIYTEGSIPPTVYNVVKEEEYRGEIKVGLTFTPEDDRDRGLSEEDIGGWKQSS
notes: bait; also called OsERP; PN20696
With B1, the binding result in [1] and in assay [2] was “binds” throughout.

B2: Hypothetical Protein 006819-2510, Similar to Hemerocallis Senescence-Related Protein 5, bait fragment aa 1-150 (other)
chain: MAFRLSNSLLGILNAVTFLLSVPVLGGGIWLATRADGTECERYFSAPVIAFGVFLLLVSLAGLVGACCRVNCLLWFYLVAMFVLIVVLFCFTVFAFVVTNKGAGEAVSGRGYKEYRLGDYSNWLQKRMENSKNWNRIRSCLQDSKVCKKL
notes: bait; also called Os006819-2510; PN20462
B2: the binding result in assay [3] is “binds”.

B3: O. sativa Defender Against Apoptotic Death 1, bait clone aa 30-115 (other)
chain: DLYVVFAVATALIQVVYMGIVGSFPFNSFLSGVLSCIGTAVLAVCLRIQVNKDNKEFKDLPPERAFADFVLCNLVLHLVIMNFLG
notes: bait; text says OsDAD1 has 114 aa; also called OsDAD1; PN20251
As for B3, the binding result in assay [4] and in assay [5] was “binds” each time.

B4: OsSGT1, bait fragment aa 200-368 (other)
chain: QMLSVSIEVPGEEPYHFQPRLFSKIIPEKSRYQVLSTKVEIRLAKAEQITWTSLDYDKKPKAVPQKIIPPAESAQRPSYPSSKSKKDWDKLEAEVKKEEKEEKLEGDAALNKFFRDIYSDADEDMRRAMMKSFVESNGTVLSTNWKDVGSKKVEGSPPDGMELKKWEY
notes: bait; also called PN20285
For B4, the binding result in [6] is “binds”.

B5: O. sativa Chitinase, Class III, bait fragment aa 10-200 (enzyme)
chain: YIGAQFTGVRFSDVPVNPGLSFHFILAFAIDYFMATQSSKPAPANGVFAPYWDTANLSPAAVAAAKAAHPNLSVILALGGDTVQNTGVNATFAPTSSVDAWVRNAADSVSGLIDAYGLDGVDVDYEHFAAGVDTFVECIGRLLTELKARHPNIATSIAPFEHPVVQRYYQPLWRRYAGVIDYVNFQFYGYG
notes: bait; also called OsCHIB1; PN19651
B5: the binding result in assay [7], in assay [8] and in assay [9] was “binds” in each case.

B6: Novel Protein PN23226, Callose synthase, prey clone aa 345-432 (other)
chain: WFMSNQETSFVTIGQRVLANPLRVRFHYGHPDIFDRLFHLTRGGVSKASKIINLSEDIFAGFNSTLREGNVTHHEYMQVGKGRDVGLN
notes: prey; AD fusion; output trait library; also called OsPN23226
Consider B6, for which, in assay [10], the binding result is on record as “binds”.

B7: O. sativa 14-3-3 Protein Homolog GF14-c, bait fragment aa 1-150 (other)
chain: MSREENVYMAKLAEQAERYEEMVEYMEKVAKTVDVEELTVEERNLLSVAYKNVIGARRASWRIVSSIEQKEEGRGNEEHVTLIKEYRGKIEAELSKICDGILKLLDSHLVPSSTAAESKVFYLKMKGDYHRYLAEFKTGAERKEAAESTM
notes: bait; also called OsGF14-c; PN12464
With B7, the binding result in [11] is reported as “binds”.

B8: Receptor-like protein kinase-like PN31085, prey clone aa 378-553 (other)
chain: NGTISDSLGNLSELSDINLIGNNLTGHVPDSLTSLRLLQKLDLSGNDLTGPLPTFSPSVKVNVTGNLNFNGTAPGSAPSKDTPGSSSSRAPTLPGQGVLPENKKKRSAVVLATTIPVAVSVVALASVCAVLIFRKKRGSVPPNAASVVVHPRENSDPDNLVKIVMVNNDGNSSSTQ
notes: prey; AD fusion; output trait library
As for B8, in [12], the binding result is listed as “binds”.

B9: O. sativa Chilling-Inducible Protein CAA90866, bait clone aa 100-250 (other)
chain: GEMTERVAQEDRIPVLKASQDHLKEFISICEALELISEDELEISRQKNLIPWQIEEHRRLHGSSAKRLQKQSSRIKERKERRRRHESSCLSAPIELGGDLLRMMEKEREGMVSYYLIGSIEGFDLLDMLKKEEEIVPAVKEGKRRMVMHLL
notes: bait; also called OsCAA90866; PN20311
In the case of B9, in assay [13], the binding result is listed as “binds”.

B10: O. sativa Defender Against Apoptotic Death 1, bait clone aa 1-115 (other)
chain: MPRATSDAKLLIQSLGKAYAATPTNLKIIDLYVVFAVATALIQVVYMGIVGSFPFNSFLSGVLSCIGTAVLAVCLRIQVNKDNKEFKDLPPERAFADFVLCNLVLHLVIMNFLG
notes: as for B3
As for B10, the binding result in [14] was “binds”.
